Measured values: patent US20260167710A1 (GlaxoSmithKline, published 2026)

Experiments:
human IL-33 [1] = biological target: T1, human IL-33 (human, Biotinylated in Example 2; the site is not stated.); test: cell-based or functional assay
T1 chain: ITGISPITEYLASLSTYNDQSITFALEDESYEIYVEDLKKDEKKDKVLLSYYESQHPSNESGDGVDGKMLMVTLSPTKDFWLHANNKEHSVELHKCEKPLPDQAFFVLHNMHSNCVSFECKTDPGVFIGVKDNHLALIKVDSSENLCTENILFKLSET

cFcgRIIb = biological target: T2, cFcgRIIb (cynomolgus monkey); test: SPR (ProteOn XPR36), anti-poly-histidine IgG surface, antibody as analyte, equilibrium fit, 25 C
T2 construct: extracellular domain

cFcgRIIa = biological target: T3, cFcgRIIa (cynomolgus monkey); test: as above
T3 construct: extracellular domain; also called recombinant soluble cynomolgus monkey Fc gamma receptor IIa

cFcgRIIIa = biological target: T4, cFcgRIIIa (cynomolgus monkey); test: as above
T4 construct: extracellular domain

human IL-33 [2] = biological target: T1, human IL-33; test: cell-based or functional assay
human IL-33 [3] = biological target: T1, human IL-33; test: cell-based or functional assay
cynomolgus IL-33 = biological target: T5, cynomolgus IL-33 (cynomolgus monkey, UniProt A0A2K5W3I1 112-269); test: MSD-SET solution equilibrium titration, 37 C
T5 construct: also called cyno IL-33; cynomolgus monkey IL-33
T5 sequence: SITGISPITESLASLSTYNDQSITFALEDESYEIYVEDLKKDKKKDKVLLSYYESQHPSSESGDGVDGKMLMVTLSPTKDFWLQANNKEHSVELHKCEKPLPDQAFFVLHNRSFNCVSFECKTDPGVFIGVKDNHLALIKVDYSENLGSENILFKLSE

human IL-33 [4] = biological target: T1, human IL-33; test: MSD-SET solution equilibrium titration, 37 C

T4 sequence (Q8SPW2 17-208): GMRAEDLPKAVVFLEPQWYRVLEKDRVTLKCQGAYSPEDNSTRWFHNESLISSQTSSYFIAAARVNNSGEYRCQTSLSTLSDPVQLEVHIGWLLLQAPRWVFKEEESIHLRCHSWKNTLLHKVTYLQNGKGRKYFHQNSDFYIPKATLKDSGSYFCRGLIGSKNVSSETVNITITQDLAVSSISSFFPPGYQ

- IC50, inhibition of 30 ng/mL IL-33 induced IFN-γ secretion from whole blood, non-pre-complexed, donor #91986 (human IL-33 [1]): 3.04 nM
- IC50, inhibition of 30 ng/mL IL-33 induced IFN-γ secretion from whole blood, non-pre-complexed, donor #92251 (human IL-33 [1]): 0.74 nM
- pIC50, inhibition of 30 ng/mL IL-33 induced IFN-γ secretion from whole blood, non-pre-complexed, Mean (human IL-33 [1]): 8.89
- pIC50, inhibition of 30 ng/mL IL-33 induced IFN-γ secretion from whole blood, non-pre-complexed, donor #32871 (human IL-33 [1]): 9.01
- pIC50, inhibition of 30 ng/mL IL-33 induced IFN-γ secretion from whole blood, non-pre-complexed, donor #90237 (human IL-33 [1]): 8.58
- pIC50, inhibition of 30 ng/mL IL-33 induced IFN-γ secretion from whole blood, non-pre-complexed, donor #91680 (human IL-33 [1]): 8.79
- pIC50, inhibition of 30 ng/mL IL-33 induced IFN-γ secretion from whole blood, non-pre-complexed, donor #91955 (human IL-33 [1]): 9.31
- pIC50, inhibition of 30 ng/mL IL-33 induced IFN-γ secretion from whole blood, non-pre-complexed, donor #91986 (human IL-33 [1]): 8.51
- pIC50, inhibition of 30 ng/mL IL-33 induced IFN-γ secretion from whole blood, non-pre-complexed, donor #92251 (human IL-33 [1]): 9.13
- Kd (cFcgRIIb): 1100 nM
- Kd (cFcgRIIa): 2110 nM
- Kd (cFcgRIIIa): 119 nM
- IC50, inhibition of 10 ng/mL IL-33 induced IFN-γ secretion from whole blood, non-pre-complexed, Mean (human IL-33 [2]): 0.37 nM
- IC50, inhibition of 10 ng/mL IL-33 induced IFN-γ secretion from whole blood, non-pre-complexed, donor #32871 (human IL-33 [2]): 0.21 nM
- IC50, inhibition of 10 ng/mL IL-33 induced IFN-γ secretion from whole blood, non-pre-complexed, donor #90237 (human IL-33 [2]): 0.73 nM
- IC50, inhibition of 10 ng/mL IL-33 induced IFN-γ secretion from whole blood, non-pre-complexed, donor #91680 (human IL-33 [2]): 0.43 nM
- IC50, inhibition of 10 ng/mL IL-33 induced IFN-γ secretion from whole blood, non-pre-complexed, donor #91955 (human IL-33 [2]): 0.08 nM
- IC50, inhibition of 10 ng/mL IL-33 induced IFN-γ secretion from whole blood, non-pre-complexed, donor #91986 (human IL-33 [2]): 0.36 nM
- IC50, inhibition of 10 ng/mL IL-33 induced IFN-γ secretion from whole blood, non-pre-complexed, donor #92251 (human IL-33 [2]): 0.42 nM
- pIC50, inhibition of 10 ng/mL IL-33 induced IFN-γ secretion from whole blood, non-pre-complexed, Mean (human IL-33 [2]): 9.51
- pIC50, inhibition of 10 ng/mL IL-33 induced IFN-γ secretion from whole blood, non-pre-complexed, donor #32871 (human IL-33 [2]): 9.67
- pIC50, inhibition of 10 ng/mL IL-33 induced IFN-γ secretion from whole blood, non-pre-complexed, donor #90237 (human IL-33 [2]): 9.13
- pIC50, inhibition of 10 ng/mL IL-33 induced IFN-γ secretion from whole blood, non-pre-complexed, donor #91680 (human IL-33 [2]): 9.37
- pIC50, inhibition of 10 ng/mL IL-33 induced IFN-γ secretion from whole blood, non-pre-complexed, donor #91955 (human IL-33 [2]): 10.1
- pIC50, inhibition of 10 ng/mL IL-33 induced IFN-γ secretion from whole blood, non-pre-complexed, donor #91986 (human IL-33 [2]): 9.44
- pIC50, inhibition of 10 ng/mL IL-33 induced IFN-γ secretion from whole blood, non-pre-complexed, donor #92251 (human IL-33 [2]): 9.37
- IC50, inhibition of 10 ng/mL IL-33/IL-12 induced IFN-γ secretion from whole blood, pre-complexed, Mean (human IL-33 [3]): 1.95 nM
- IC50, inhibition of 10 ng/mL IL-33/IL-12 induced IFN-γ secretion from whole blood, pre-complexed, donor #91232 (human IL-33 [3]): 0.63 nM
- IC50, inhibition of 10 ng/mL IL-33/IL-12 induced IFN-γ secretion from whole blood, pre-complexed, donor #91845 (human IL-33 [3]): 2.72 nM
- IC50, inhibition of 10 ng/mL IL-33/IL-12 induced IFN-γ secretion from whole blood, pre-complexed, donor #92023 (human IL-33 [3]): 1.88 nM
- IC50, inhibition of 10 ng/mL IL-33/IL-12 induced IFN-γ secretion from whole blood, pre-complexed, donor #92257 (human IL-33 [3]): 0.81 nM
- IC50, inhibition of 10 ng/mL IL-33/IL-12 induced IFN-γ secretion from whole blood, pre-complexed, donor #92258 (human IL-33 [3]): 3.72 nM
- pIC50, inhibition of 10 ng/mL IL-33/IL-12 induced IFN-γ secretion from whole blood, pre-complexed, Mean (human IL-33 [3]): 8.8
- pIC50, inhibition of 10 ng/mL IL-33/IL-12 induced IFN-γ secretion from whole blood, pre-complexed, donor #91232 (human IL-33 [3]): 9.19
- pIC50, inhibition of 10 ng/mL IL-33/IL-12 induced IFN-γ secretion from whole blood, pre-complexed, donor #91845 (human IL-33 [3]): 8.56
- pIC50, inhibition of 10 ng/mL IL-33/IL-12 induced IFN-γ secretion from whole blood, pre-complexed, donor #92023 (human IL-33 [3]): 8.72
- pIC50, inhibition of 10 ng/mL IL-33/IL-12 induced IFN-γ secretion from whole blood, pre-complexed, donor #92257 (human IL-33 [3]): 9.08
- pIC50, inhibition of 10 ng/mL IL-33/IL-12 induced IFN-γ secretion from whole blood, pre-complexed, donor #92258 (human IL-33 [3]): 8.42
- Kd (cynomolgus IL-33): 0.0565 nM
- Kd (human IL-33 [4]): 0.0135 nM
B1: 22A06-458 (antibody, human IgG1, kappa)
heavy: QVQLVQSGAEVKKPGASVKVSCKASGYTFISYGMHWVRQAPGQGLEWMGEINPHGGSTSYAQKFKGRVTMTRDTSTSTVYMELSSLRSEDTAVYYCARPSAAYSHYLGIDLWGRGTLVTVSSASTKGPSVFPLAPSSKSTSGGTAALGCLVKDYFPEPVTVSWNSGALTSGVHTFPAVLQSSGLYSLSSVVTVPSSSLGTQTYICNVNHKPSNTKVDKKVEPKSCDKTHTCPPCPAPELLGGPSVFLFPPKPKDTLYITREPEVTCVVVDVSHEDPEVKFNWYVDGVEVHNAKTKPREEQYNSTYRVVSVLTVLHQDWLNGKEYKCKVSNKALPAPIEKTISKAKGQPREPQVYTLPPSRDELTKNQVSLTCLVKGFYPSDIAVEWESNGQPENNYKTTPPVLDSDGSFFLYSKLTVDKSRWQQGNVFSCSVMHEALHNHYTQKSLSLSPGK
light: DIQMTQSPSSVSASVGDRVTITCRASQGISSWLAWYQQKPGKAPKLLIYAASRLQSGVPSRFSGSGSGTDFTLTISSLQPEDFATYYCQQANVFPLTFGGGTKVEIKRTVAAPSVFIFPPSDEQLKSGTASVVCLLNNFYPREAKVQWKVDNALQSGNSQESVTEQDSKDSTYSLSSTLTLSKADYEKHKVYACEVTHQGLSSPVTKSFNRGEC
